According to patent publication US20230345975A1, “COMPOSITIONS AND METHODS OF PRESERVING MEAT SUBSTITUTES” (Wisconsin Alumni Research Foundation, priority 2016, published 2023):

Biological target: soybean Hb (Lba) (Glycine max, UniProt P02238)
Experiment: Redness (a-value) of Lba solutions after exposure to 35 fc of light for 4 days
Details: 35 fc light, 4 days, main effect over niacin amounts
Procedure: FIG. 2—Effect of pH and different molar ratios of niacin to soybean Hb on the redness of Lba solutions. Measurement after exposure to 35 fc of light for 4 days
100 grams of meat analog containing a 3:1 dose of niacin would provide 5.9 mg niacin; a 6:1 dose would provide 11.8 mg niacin.

Sequence of soybean Hb (Lba) (P02238 whole entry): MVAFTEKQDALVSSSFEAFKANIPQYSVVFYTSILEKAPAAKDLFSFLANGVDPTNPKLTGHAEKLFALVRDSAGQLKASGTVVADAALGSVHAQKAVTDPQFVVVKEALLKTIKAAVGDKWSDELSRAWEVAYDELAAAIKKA

B1: Lba: plant Hb (soybean hemoglobin; Lba) added to meat analog (protein, UniProt P02238 2-144, looked up)
Leghemoglobin 3: VAFTEKQDALVSSSFEAFKANIPQYSVVFYTSILEKAPAAKDLFSFLANGVDPTNPKLTGHAEKLFALVRDSAGQLKASGTVVADAALGSVHAQKAVTDPQFVVVKEALLKTIKAAVGDKWSDELSRAWEVAYDELAAAIKKA
In the case of B1, the “Redness (a-value) at day 4” value (pH 6.0) is reported as 4.72a, the “Redness (a-value) at day 4” value (pH 6.3) is reported as 4.62ab and the “Redness (a-value) at day 4” value (pH 6.6) is reported as 4.45b. The “Redness (a-value) at day 4” value (pH 7.0) was 3.99c.
